Key:
[1] = Food intake, energy expenditure and body composition after asprosin gain-of-function; format: in vivo, mice
Method: Mouse food intake and energy expenditure—Food intake and energy expenditure were measured using the CLAMS System (Comprehensive Lab Animal Monitoring System, Columbus Instruments). Animals were acclimatized in the recording chambers for 48-72 hours, and measurements were taken subsequently for 24 hours during the light cycle and dark cycle. Mice received food and water ad libitum, or after an overnight fast where indicated. Oxygen consumption and food intake were recorded.
As previously described (Yan et al., 2016), male mice were anesthetized with inhaled isoflurane and stainless steel cannulas (Plastics One) were inserted into the lateral ventricles (0.34 mm caudal and 1 mm lateral from bregma; depth, 2.3 mm). […] These mice received 10 ng GFP ([…]) twice a day for 3 continuous days, and 10 ng asprosin (in […]) the last day. The BioDAQ food intake monitoring system (Research Diets, Inc) was used to monitor the food intake, and the food intake from the last GFP injection and asprosin were compared.
Mouse body composition—Body composition was analyzed using an ECHO-MRI system (Echo medical systems, Texas) or DEXA scans where indicated. Lean mass, fat mass, and overall body weight were calculated using the manufacturer-provided software.

[2] = test system: hepatic glucose production; experiment: Hyperinsulinemic-euglycemic clamp; format: in vivo, mice
Method: Animals. […] MgR heterozygous mice were obtained from Jackson labs, and bred to obtain male MgR homozygous mice and WT littermates. 5-week-old male Ob/Ob mice were obtained from Jackson labs. […] For diet induced obesity studies, mice were placed on the adjusted calories diet providing 60% of calories from fat by Harlan-Teklad for 12 weeks. […] Mice were exposed to 30 μg recombinant His-tagged asprosin or recombinant Green Fluorescent Protein (GFP) daily for 10 days via subcutaneous injection. Mice were sacrificed and plasma and various organs were isolated 10 days after virus or peptide injection. For single dose injections, the same protocol was followed as that for daily injections, followed by collection of plasma at the indicated times via tail bleeds for insulin and glucose measurement. Insulin and glucose tolerance tests (ITT and GTT) were performed using standard procedures. […] For immunologic sequestration experiments, mice were injected intra-peritoneally with a 500 μg dose in saline of a custom-built (Thermo Scientific Inc.) anti-asprosin mouse monoclonal antibody directed against amino acids 106-134 (human profibrillin amino acids 2837-2865) or an equivalent dose of isotype matched IgG (Southern Biotech, Inc.). […] The Baylor College of Medicine Institutional Animal Care and Utilization Committee approved all experiments.

hepatocyte surface = experiment: Asprosin-biotin conjugate binding to the hepatocyte surface; set-up: species or system mouse; conditions: 100-fold excess
Method: Recombinant asprosin was conjugated with biotin using the Basic Biotinylation Sulfo-NHS Kit from Pierce. […] The cells were washed 3 times with PBS without lysis, followed by addition of streptavidin-HRP. The resulting absorbance was measured colorimetrically and the results were normalized to protein content.

[3] = Plasma His-tag sandwich ELISA after subcutaneous injection; format: in vivo, mice; conditions: 30 μg subcutaneous injection
Method: FIGS. 22A-22E: Asprosin traffics to the liver in vivo and binds the hepatocyte surface with high affinity in a saturable and competitive manner. (FIG. 22A) SPECT scans were performed 15 minutes after intravenous injection with 150 μCi I125-asprosin, boiled I125-asprosin, or free I125 in live, anesthetized mice previously injected with bismuth as a hepatic contrast agent. 3 representative images are shown in axial and coronal planes. (FIG. 22B) Liver asprosin accumulation was measured as liver photon intensity from mice in (FIG. 22A). (FIG. 22C) Tissue radioactivity (normalized to tissue weight) was measured using a γ-counter after sacrificing mice from (FIG. 22A), 45 minutes following injection (n=4 mice). (FIG. 22D) Sandwich ELISA was used to measure plasma His tag (recombinant asprosin contains an N-terminal His tag) in WT mice before injection and 15, 30, 60 and 120 minutes after injection with 30 μg recombinant asprosin. The time taken for peak signal to fall to half-maximal level is indicated by the arrow. […] Specific binding (shown in red) was calculated as the difference between the two curves. Data are represented as the mean±SEM.
Sandwich ELISA and Western Blot. […] Increasing amounts of recombinant asprosin (which contains an N-terminal His tag) were used to generate a standard curve for both assays. EDTA-plasma was used for plasma sandwich ELISAs and serum-free DMEM concentrated using Vivaspin protein concentrator spin columns by GE Life Sciences Inc. was used for media sandwich ELISAs.

human dermal fibroblasts = experiment: Adipogenic differentiation of human dermal fibroblasts; format: cell-based
Method: Cell Culture—Human dermal fibroblasts isolated from NPS subjects or WT dermal fibroblasts from unaffected control subjects were subjected to adipogenic differentiation using standard protocols. […] Standard transfection methods with expression plasmids were used for in vitro transgenesis.
RNA and Protein Analysis—Standard RNA extraction procedures (RNeasy Mini Kit from Qiagen) were employed. Reverse transcription was carried out using the Superscript III kit (Invitrogen) using the manufacturer's protocol. For gene expression analysis, QPCR was performed using sequence-specific primers and probes from Roche (Universal Probe Library). TBP was used as an internal control for all gene-expression assays. Western blotting was performed using standard methods on plasma or cell culture media using a mouse monoclonal antibody directed against Asprosin, which was purchased from Abnova (Catalog #H00002200-M01). The mouse monoclonal antibody against fibrillin-1 was purchased from Abcam (Catalog #ab3090). […] At that time, media was concentrated using the Amicon Ultra-2 Centrifugal filter unit before proceeding with western blotting.

[4] = rat, in vivo, iv
[5] = test system: mouse primary hepatocytes
Method: Cell Culture. Primary mouse hepatocytes were isolated from 8- to 12-week-old WT mice using standard methodology. […] The cells were treated with 50 nM recombinant asprosin or GFP for 10 minutes for cAMP and PKA assays and for 2 hours for the in vitro glucose production assay. Cells were pretreated with various inhibitors for 1 hour prior to treatment with asprosin, GFP, Glucagon or Epinephrine. cAMP was measured from cell lysates using the cAMP direct immunoassay kit from Cell Biolabs. PKA activity was measured from cell lysates using the PKA kinase activity kit from Enzo Lifesciences, Inc. Media glucose content was measured using the Glucose Colorimetric Assay Kit from Biovision. Results were normalized to protein content.

[6] = daily subcutaneous doses for 10 days

B1: recombinant asprosin: 146 amino acid E. coli expressed fusion protein: 6 amino acid N-terminal His tag and 140 amino acid wild type asprosin (FBN1 2732-2871) (protein)
chain: HHHHHHSTNETDASNIEDQSETEANVSLASWDVEKTAIFAFNISHVSNKVRILELLPALTTLTNHNRYLIESGNEDGFFKINQKEGISYLHFTKKKPVAGTYSLQISSTPLYKKKELNQLEDKYDKDYLSGELGDNLKMKIQVLLH
In the case of B1, the “orexigenic effect in mice with AgRP neuron ablation” value ([1]; IP injection, 24 hours cumulative food intake) is reported as “completely eliminated”, the “adiposity (fat mass)” value [1, 6] is reported as “increase in adiposity” and the energy expenditure [1, 6] is reported as “no change in energy expenditure”. For the same molecule, the food intake [1, 6] was “expected hyperphagia”, the “food intake after intracerebroventricular (ICV) injection” value ([1]; dark phase, 10 ng ICV) was “orexigenic effect” and the “food intake (FIG. 17)” value ([1]; mice injected with asprosin) was “hyperphagia”. The “hypophagia of NPS mice” value ([1]; single subcutaneous dose) was “sufficient to completely rescue the hypophagia”, the “latent phase prior to orexigenic effect” value ([1]; single subcutaneous dose) was “latent phase of several hours” and the “food intake over the next 24-hr” value ([1]; single subcutaneous dose, C57Bl/6 mice, vs GFP) was “greater food intake”. The hepatic glucose production ([2]; elevated plasma asprosin, 10 days after FBN1 adenovirus (FIG. 21C)) was “increased hepatic glucose production”, the “ability of peripheral organs to take up glucose in response to insulin” value ([2]; glucose disposal rate, FIG. 21D) was “no impact” and the “competition of asprosin-biotin binding” value (hepatocyte surface) was “abolished the effect”. The plasma half-life ([3]; His-tag ELISA) was “approximately 20 minutes”, the “peak level in plasma” value ([3]; mice) was 50 nM and the “time of peak level after injection” value ([3]; mice) was 20 min. For the same molecule, the “NPS associated fat differentiation and inflammogenic defects” value (human dermal fibroblasts; polypeptide added to the media of mutant cells (10 ug, 7 days), FIG. 15) was “rescued”, the “adipogenic differentiation in WT cells” value (human dermal fibroblasts; recombinant asprosin added to culture media (60 nanomolar), 7 days adipogenic induction, FIG. 4G) was “promoted adipogenic differentiation” and the “adipogenic defect in NPS mutant cells” value (human dermal fibroblasts; recombinant asprosin added to culture media (60 nanomolar), 7 days, FIG. 4H) was “sufficient to rescue the adipogenic defect”. For the same molecule, the “elevation in CSF asprosin” value [4] was 6 fold, the “his-tag signal in the CSF” value [4] was “strong his-tag signal” and the “hepatocyte PKA activity, dose response” value [5] was “increased in a dose responsive manner”.

From patent publication US20210047398A1, “ASPROSIN, A FAST-INDUCED GLUCOGENIC PROTEIN HORMONE” (Baylor College of Medicine, priority 2016, published 2021)
